# Results taken from patent US20260232759A1, “PEPTIDES THAT INHIBIT INFECTION BY SARS-COV-2, THE VIRUS THAT CAUSES COVID-19 DISEASE” (Wisconsin Alumni Research Foundation, priority 2021, published 2026).
# No end group written: not given here.
# B1: Bf APC/B3E (peptide)
# peptide: DISQINASVVNIEYEIXKLEEVAXKLEESLIDLQELGSGSGC
# modifications: not fully specified (C-terminus); also: α/β-peptide, β-residue positions not given here
# Target: SARS-CoV-2 Spike protein (SARS-CoV-2), P0DTC2
# Experiment: cell-based or functional assay
binder,measurement,value
B1,"inhibition of S-mediated cell-cell fusion (β-Gal complementation), IC50",50 nM
